Results published in paper PMC4609183.

The substances below were run against R0RBR parkin (residues 141–465, lacking Ubl domain and linker) (human) (UniProt O60260) (assay: ITC; 50 μM R0RBR, full-length parkin or phosphoparkin titrated with Ub, Ubl or their variants; 25°C; 50 mM HEPES, 50 mM NaCl, 250 μM TCEP pH 7.5 or 50 mM HEPES, 150 mM NaCl, 0.5 mM TCEP pH 8.0; single-site model).

In order of rising Kd:
1. parkin Ubl domain S65D (from UniProt O60260 144-465) (domain or fragment)  5 µM
2. parkin Ubl domain S65E (domain or fragment)  5.3 µM
3. phosphorylated parkin Ubl domain (domain or fragment)  26 µM

In order of rising dH:
1. parkin Ubl domain S65E (domain or fragment)  -11 kcal/mol
2. parkin Ubl domain S65D (from UniProt O60260 144-465) (domain or fragment)  -9.08 kcal/mol
3. phosphorylated parkin Ubl domain (domain or fragment)  -3.82 kcal/mol

In order of rising stoichiometry N:
1. parkin Ubl domain S65E (domain or fragment)  0.98
2. parkin Ubl domain S65D (from UniProt O60260 144-465) (domain or fragment)  1.03
3. phosphorylated parkin Ubl domain (domain or fragment)  1.04
